Measured values taken from publication PMC2291563, “SAM Domain-Based Protein Oligomerization Observed by Live-Cell Fluorescence Fluctuation Spectroscopy” (PLoS ONE, 2008).

Assays:
[1] = molecular target: the molecule itself; test: photon counting histogram (1dPCH), constrained two-component fit; live yeast cells at high salt (NaCl); monomer brightness fixed, oligomer brightness and numbers freely varied; subunits estimated from a linear extrapolation of GFP brightness
[2] = molecular target: the molecule itself; test: photon counting histogram (1dPCH), constrained two-component fit; live yeast cells treated with α-factor; monomer brightness fixed, oligomer brightness and numbers freely varied; subunits estimated from a linear extrapolation of GFP brightness
[3] = molecular target: the molecule itself; test: photon counting histogram (1dPCH), constrained two-component fit; live yeast cells, cycling; monomer brightness fixed, oligomer brightness and numbers freely varied; subunits estimated from a linear extrapolation of GFP brightness
[4] = molecular target: T1, Ste50-mCherry (budding yeast (S288C background), UniProt P25344 1-346); test: two-dimensional photon counting histogram (2dPCH); live yeast cells with Ste11-GFP and Ste50-mCherry, cytosolic pool; 50 µs bins; two-component fit; cycling cells, also after α-factor or NaCl; settings: partners not purified
T1 construct: Ste50, SAM domain protein, budding yeast; tagged at the chromosomal locus; source: expressed from its chromosomal locus in live yeast cells (S288C background); not shown: mCherry, C-terminal, kept
T1 sequence (looked up): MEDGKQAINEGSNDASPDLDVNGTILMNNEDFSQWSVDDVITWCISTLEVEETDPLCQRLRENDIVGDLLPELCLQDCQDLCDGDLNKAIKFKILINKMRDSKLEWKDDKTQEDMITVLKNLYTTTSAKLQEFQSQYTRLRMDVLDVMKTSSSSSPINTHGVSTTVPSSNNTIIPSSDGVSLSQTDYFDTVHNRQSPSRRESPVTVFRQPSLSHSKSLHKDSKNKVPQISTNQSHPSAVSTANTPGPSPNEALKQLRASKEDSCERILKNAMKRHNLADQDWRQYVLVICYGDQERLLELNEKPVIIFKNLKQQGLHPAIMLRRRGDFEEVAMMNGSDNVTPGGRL

B1: Ste50-GFP (natural protein, budding yeast (S288C background), UniProt P25344 1-346, looked up)
chain: MEDGKQAINEGSNDASPDLDVNGTILMNNEDFSQWSVDDVITWCISTLEVEETDPLCQRLRENDIVGDLLPELCLQDCQDLCDGDLNKAIKFKILINKMRDSKLEWKDDKTQEDMITVLKNLYTTTSAKLQEFQSQYTRLRMDVLDVMKTSSSSSPINTHGVSTTVPSSNNTIIPSSDGVSLSQTDYFDTVHNRQSPSRRESPVTVFRQPSLSHSKSLHKDSKNKVPQISTNQSHPSAVSTANTPGPSPNEALKQLRASKEDSCERILKNAMKRHNLADQDWRQYVLVICYGDQERLLELNEKPVIIFKNLKQQGLHPAIMLRRRGDFEEVAMMNGSDNVTPGGRL
notes: Ste50, SAM domain protein, budding yeast; tagged at the chromosomal locus; source: expressed from its chromosomal locus in live yeast cells (S288C background); not shown: GFP, C-terminal, kept
[1]
  stoichiometry N: 3 to 4
[2]
  stoichiometry N: ~4
[3]
  stoichiometry N: 5 to 6

B2: Ste11-GFP (natural protein, budding yeast (S288C background), UniProt P23561 1-717, looked up)
chain: MEQTQTAEGTDLLIGDEKTNDLPFVQLFLEEIGCTQYLDSFIQCNLVTEEEIKYLDKDILIALGVNKIGDRLKILRKSKSFQRDKRIEQVNRLKNLMEKVSSLSTATLSMNSELIPEKHCVIFILNDGSAKKVNVNGCFNADSIKKRLIRRLPHELLATNSNGEVTKMVQDYDVFVLDYTKNVLHLLYDVELVTICHANDRVEKNRLIFVSKDQTPSDKAISTSKKLYLRTLSALSQVGPSSSNLLAQNKGISHNNAEGKLRIDNTEKDRIRQIFNQRPPSEFISTNLAGYFPHTDMKRLQKTMRESFRHSARLSIAQRRPLSAESNNIGDILLKHSNAVDMALLQGLDQTRLSSKLDTTKIPKLAHKRPEDNDAISNQLELLSVESGEEEDHDFFGEDSDIVSLPTKIATPKNWLKGACIGSGSFGSVYLGMNAHTGELMAVKQVEIKNNNIGVPTDNNKQANSDENNEQEEQQEKIEDVGAVSHPKTNQNIHRKMVDALQHEMNLLKELHHENIVTYYGASQEGGNLNIFLEYVPGGSVSSMLNNYGPFEESLITNFTRQILIGVAYLHKKNIIHRDIKGANILIDIKGCVKITDFGISKKLSPLNKKQNKRASLQGSVFWMSPEVVKQTATTAKADIWSTGCVVIEMFTGKHPFPDFSQMQAIFKIGTNTTPEIPSWATSEGKNFLRKAFELDYQYRPSALELLQHPWLDAHII
notes: Ste11, MAP kinase kinase kinase with a SAM domain, budding yeast; tagged at the chromosomal locus; source: expressed from its chromosomal locus in live yeast cells (S288C background); not shown: GFP, C-terminal, kept
[4]
  stoichiometry N: 2 Ste11 per Ste50
